PMC9340162, “The Central Circadian Clock Protein TaCCA1 Regulates Seedling Growth and Spike Development in Wheat (Triticum aestivum L.)”
Blank lines part the entries; values can stand above or below the molecule they belong to.

Legend:
[1] = molecular target: MBP-TaCCA1-7D fusion protein (Triticum aestivum (bread wheat)); assay: BLI; ForteBio Octet RED 96e; streptavidin (SA) biosensors loaded with 10.0 ug/ml biotinylated recombinant TaCCA1-7D; TaCCA1-7A or TaCCA1-7B in solution at 10-630 nM, low to high concentration; KD as the ratio of dissociation and association rate constants
MBP-TaCCA1-7D [2] = molecular target: T1, MBP-TaCCA1-7D (Triticum aestivum, UniProt A0A3B6TKA2 1-718); assay: BLI; single-digit nM per text; exact value in Table S6 not in material; EMSA: 150 ng protein, 2 pM DIG probe, 10 ul, 1 h on ice, 6% PAGE in 0.5x TBE pH 8.0; BLI: Octet RED96e, SA sensors with biotinylated TaCCA1-7D; buffers not stated; details: protein: recombinant, tags: MBP (pMAL-c2X, N-terminal), biotinylated for BLI, blunt
MBP-TaCCA1-7D [3] = molecular target: T1, MBP-TaCCA1-7D; assay: BLI; kon 1.35E+05 1/Ms; koff 2.42E-04 1/s; EMSA: 150 ng protein, 2 pM DIG probe, 10 ul, 1 h on ice, 6% PAGE in 0.5x TBE pH 8.0; BLI: Octet RED96e, SA sensors with biotinylated TaCCA1-7D; buffers not stated; details: protein: recombinant; tags: MBP (pMAL-c2X, N-terminal); biotinylated for BLI; label: 5' biotin; blunt
[4] = label: 5' biotin (BLI), DIG (EMSA)

T1 sequence (A0A3B6TKA2 entry or part of it): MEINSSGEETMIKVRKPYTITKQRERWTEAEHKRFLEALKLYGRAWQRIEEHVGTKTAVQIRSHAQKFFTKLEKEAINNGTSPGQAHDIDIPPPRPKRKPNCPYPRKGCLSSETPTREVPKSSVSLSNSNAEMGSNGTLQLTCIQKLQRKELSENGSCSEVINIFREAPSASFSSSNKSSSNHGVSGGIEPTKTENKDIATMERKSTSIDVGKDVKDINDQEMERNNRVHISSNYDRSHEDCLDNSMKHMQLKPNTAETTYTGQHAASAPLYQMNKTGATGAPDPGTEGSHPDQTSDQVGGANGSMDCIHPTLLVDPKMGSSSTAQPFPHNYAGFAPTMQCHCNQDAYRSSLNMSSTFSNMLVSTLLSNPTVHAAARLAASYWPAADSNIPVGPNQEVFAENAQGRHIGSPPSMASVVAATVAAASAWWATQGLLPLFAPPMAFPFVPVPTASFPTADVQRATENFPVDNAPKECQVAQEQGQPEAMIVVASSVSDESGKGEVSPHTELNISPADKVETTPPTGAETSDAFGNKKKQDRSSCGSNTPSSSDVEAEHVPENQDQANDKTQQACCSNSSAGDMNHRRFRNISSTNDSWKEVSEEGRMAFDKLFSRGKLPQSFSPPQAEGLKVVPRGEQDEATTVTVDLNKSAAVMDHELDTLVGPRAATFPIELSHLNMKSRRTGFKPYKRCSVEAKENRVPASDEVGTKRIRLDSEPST

- Kd [1]: 0.0036 µM
- koff [1]: 0.00133 s⁻¹
- kon [1]: 368000 M⁻¹ s⁻¹
Molecule: TaCCA1-7B (natural protein)

- Kd [1]: 0.0278 µM
- koff [1]: 0.0012 s⁻¹
- kon [1]: 43000 M⁻¹ s⁻¹
Molecule: TaCCA1-7A (natural protein)

B1: DAP-4 (TraesCS3B02G186700 promoter) (dsDNA)
DNA 1: AATAGAAAATTACTGATATTTCATCCTTATGAGATT
DNA 2: AATCTCATAAGGATGAAATATCAGTAATTTTCTATT
- Kd (MBP-TaCCA1-7D [2]; label: 5' biotin): < 0.01 µM

B2: DAP-1 (TraesCS1D02G226100 promoter, CHLG) (dsDNA)
DNA 1: TTATATGCCTATATGATATTATGATTTATTTGGTTT
DNA 2: AAACCAAATAAATCATAATATCATATAGGCATATAA
- Kd (MBP-TaCCA1-7D [3]): 0.00179 µM

B3: DAP-3 (TraesCS2B02G491700 promoter) (dsDNA)
DNA 1: CTTCAGATTTGTTGATATTTTCATATTGCAGACAT
DNA 2: ATGTCTGCAATATGAAAATATCAACAAATCTGAAG
- Kd (MBP-TaCCA1-7D [2]; [4]): < 0.01 µM

B4: DAP-2 (TraesCS1D02G295200 promoter) (dsDNA)
DNA 1: AAATAGAAAATTACTGATATTTCATCCTTGTGTGAT
DNA 2: ATCACACAAGGATGAAATATCAGTAATTTTCTATTT
- Kd (MBP-TaCCA1-7D [2]; [4]): < 0.01 µM
